Data as given in patent US20180267027A1, “FLUORESCENT BIOSENSOR FOR […] ASSAY” (The Regents of the University of California, priority 2015, published 2018).

T1: protein lysine MTase SET7/9 (Homo sapiens, UniProt Q8WTS6)
T1 construct: purchased New England Biolabs Inc (Ipswich, Mass.)
T1 sequence (Q8WTS6 1-366): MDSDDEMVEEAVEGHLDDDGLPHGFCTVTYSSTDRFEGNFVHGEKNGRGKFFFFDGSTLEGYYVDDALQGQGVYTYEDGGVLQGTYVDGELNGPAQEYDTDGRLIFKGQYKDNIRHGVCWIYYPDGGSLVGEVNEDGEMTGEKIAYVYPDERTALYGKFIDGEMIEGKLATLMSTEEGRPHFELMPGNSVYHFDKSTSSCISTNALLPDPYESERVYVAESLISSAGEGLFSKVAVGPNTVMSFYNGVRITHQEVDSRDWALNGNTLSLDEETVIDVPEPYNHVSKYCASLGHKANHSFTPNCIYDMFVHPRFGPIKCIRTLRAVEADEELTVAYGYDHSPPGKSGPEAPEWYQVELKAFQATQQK

T2: SET7/9 (Homo sapiens, UniProt Q8WTS6)
T2 construct: purchased New England Biolabs Inc (Ipswich, Mass.)
T2 sequence (Q8WTS6 1-366): T1 sequence (Q8WTS6 1-366)

B1: Aeh1-4: SAH biosensor, SEQ ID NO: 44 (nucleic acid)
chain: CGCCCCGAGGAGCGCTGCAACAGGTTGTTGAGTAGAGTGTGAGCTCCGTAACTAGTTACATCGCAAGATGTAACTGAATGAAATGGTGAAGGACGGGTCCACCTGCCAGGCTCGGGGATGGCGCCCCATCGTTCCAACGGCGCTCAGCGAAA
B2: cpSpinach2: circular permutant of the Spinach2 aptamer, SEQ ID NO: 93 (nucleic acid)
chain: GCAGCCTACTTGTTGAGTAGAGTGTGAGCTCCGTAACTAGTTACATCGCAAGATGTAACTGAATGAAATGGTGAAGGACGGGTCCAGTAGGCTGC
modifications: expressed or natural sequence

What was measured:
[1] = target: T1, protein lysine MTase SET7/9; test: Protein MTase SET7/9 activity assay with SAH biosensor; format: biochemical
Experimental: To initiate the enzyme reaction, 5 μL of H3 peptide substrate (N′-[…]-LAGGKKC-C′) (SEQ ID NO:132) was added to 5 μL of 2×enzyme reaction solution containing SET7/9, SAM, and NEB HMT buffer. Generally, final concentrations are 50 μM H3 peptide, 0.1 U/μL SET7/9, 25 μM SAM, and lx NEB HMT buffer (50 mM Tris, pH 9.0, 5 mM MgCl2, and 4 mM DTT). The reaction solution was incubated at 37° C. for 2 hours to allow the enzyme reaction to proceed.
To initiate the fluorescent biosensor reaction, 10 μL of the enzyme reaction was added to 90 μL of biosensor reaction solution containing renatured RNA, DFHBI, and buffer. […] For the SAH control, SAH was added to a final concentration of 0.5 μM in place of the enzyme reaction. In vitro fluorescence assays were conducted as described above.

SET7/9 = target: T2, SET7/9; test: High-throughput screening (HTS) assay of SET7/9 activity and inhibition, Z′ score; format: biochemical; conditions: 384-well plate, 16 replicates
Experimental: For HTS experiments, samples were dispensed into a Grenier 781077 384-well flat bottom black plate using an Eppendorf Repeater […] pipetter to dispense reaction components. Z' scores were calculated from 16 well replicates in the 384-well plate. For the HTS SET7/9 activity assay, 3 μL of H3 peptide or water was added to 9 μL of reaction solution containing SET7/9 MTase, SAM, and NEB HMT Reaction Buffer in each well. Final concentrations are: 0.25 U/10 μL SET7/9, 25 μM SAM, 50 μM H3 peptide and 1×NEB HMT Reaction Buffer (50 mM Tris, pH 9.0, 5 mM MgCl2, and 4 mM DTT). After 30 min incubation at 37° C., to initiate the fluorescent biosensor reaction, 18 μL of biosensor reaction solution containing renatured RNA, DFHBI, and buffer was added to each well. […] In vitro fluorescence assays were conducted as described above. For the HTS SET7/9 inhibition assay, 4.5 μL of sinefungin or water was added to 8 μL of reaction solution containing SET7/9 MTase, and NEB HMT Reaction Buffer in each well. After 15 minutes incubation at 37° C., methylation reaction was initiated by adding 2.5 μL solution containing both SAM and H3 peptide. Final concentrations are: 0.25 U/10 μL SET7/9, 25 μM SAM, 50 μM H3 peptide, 300 μM sinefungin and 1×NEB HMT Reaction Buffer (50 mM Tris, pH 9.0, 5 mM MgCl2, and 4 mM DTT). After 30 min incubation at 37° C., to initiate the fluorescent biosensor reaction, 15 μL of biosensor reaction solution containing renatured RNA, DFHBI, and buffer was added to each well. […] In vitro fluorescence assays were conducted as described above.

[2] = In vitro fluorescence assays of SAH biosensors (turn-on, ligand selectivity); format: biochemical
Experimental: Other conditions, including temperature, concentrations of MgCl2, DFHBI, ligand or RNA, were varied in different experiments and are indicated in the figures. The RNA was renatured in buffer at 70° C. for 3 min and cooled to ambient temperature for 5 min prior to addition to the reaction solution. DFHBI was added to a solution containing buffer and ligand, and then RNA was added at the end before fluorescence measurement. Binding reactions were performed in 100 μL volumes and were incubated at the indicated temperature in a Corning Costar 3915 96-well black plate until equilibrium was reached, which in some cases takes 30 to 60 minutes. The fluorescence emission was measured using a Molecular Devices SpectraMax Paradigm Multi-Mode detection platform plate reader (Sunnyvale, Calif.) with the following instrument parameters: 448 nm excitation, 506 nm emission.

E. coli BL21* cells = test: In vivo fluorescence of RNA aptamers by flow cytometry; format: cell-based; conditions: 100 μM DFHBI
Experimental: To compare the fluorescence of Spinach2 and cpSpinach2 in live cells, pET31b plasmids encoding the RNA aptamers in a tRNA scaffold were transformed into E. coli BL21* cells. Following IPTG induction of transcription, cells were incubated with DFHBI and fluorescence was quantitated by flow cytometry. The mean cellular fluorescence was measured as a function of increasing DFHBI concentration in the media, in order to determine the optimal conditions for aptamer fluorescence. Unexpectedly, full saturation of fluorescence was not observed, even when E. coli cells were incubated in media containing up to 800 μM DFHBI (FIG. 5). However, the non-specific fluorescence signal increased when DFHBI concentration exceeded 100 μM. Thus, to balance higher fluorescence activation and lower non-specific background, a concentration of 100 μM was adopted for further experiments. Under these conditions, cellular fluorescence activation for Spinach2 and cpSpinach2 was on average 34 and 22-fold over background, respectively (FIG. 6). Thus, cpSpinach2 is a functional alternative to Spinach2. Although it currently performs slightly poorer in terms of fluorescence activation in live cells, improvements are likely possible through directed mutagenesis for higher thermal stability, improved folding efficiency and less Mg^2+ dependency. […]

E. coli cells = test: RNA stability in E. coli, cpSpinach2 fluorescence in M9 minimal media; format: cell-based; conditions: M9 minimal media without inducers, monitored for 4 h
Experimental: Fluorescence of cpSpinach2-expressing E. coli cells grown 16 hrs in auto-induction media, then pelleted and re-suspended in M9 minimal media without RNA transcription inducers.
RNA stability in E. coli: For the time-course experiment shown in FIG. 4D, E. coli cells from overnight culture (16 h post-inoculation and induction) were pelleted and re-suspended in M9 minimal media without transcriptional inducers (lactose). To analyze the stability of RNA levels under these conditions, E. coli cells expressing cpSpinach2 were processed using the same procedures and fluorescence was monitored for 4 h. Fluorescence readings remained stable for up to 3 h in M9 minimal media. Therefore, we expect that the related biosensor levels would be stable in the same time-frame, so the fluorescence change shown in FIG. 4D reflects the dynamic change in SAH levels.

[3] = system: E. coli BL21* wild-type and ΔMTAN cells; test: Live cell detection of SAH accumulation, wild-type versus MTAN knockout, flow cytometry; format: cell-based
Experimental: A Targetron® Gene Knockout System (Sigma-Aldrich) was used to knock out the MTAN gene from E. coli BL21*, following manufacturer protocols.
Preparation of cell samples for flow cytometry was carried out by inoculating 2 mL of auto-induction media/Carb (F. Studier, Protein Expression and Purification 2005, 41, 207-234) with E. coli BL21* cells from colonies grown on an LB/Carb culture plate, containing pET31b plasmids encoding RNA aptamers. […] Cells were then grown aerobically overnight to saturation (0D600 varied from 5 to 10) and diluted to OD600˜0.01-0.05 in M9 minimal media (pH ˜6.0) with 100 μM DFHBI-1T. Cellular fluorescence was measured for 30,000 cells using a Life Technologies Attune N×T Acoustic Focusing Cytometer.

| Molecule | fluorescence response to SET7/9 activity [1] | Z′ score, substrate screen (SET7/9) | Z′ score, inhibitor screen (SET7/9; 300 μM sinefungin) | fluorescence response to SAH at low magnesium ([2]; 3 mM magnesium) | fluorescence turn-on ([2]; 37° C., 10 mM Mg^2+) | change of fluorescence turn-on with increasing magnesium ([2]; magnesium from 1 to 20 mM) | cellular fluorescence activation over background (E. coli BL21* cells) [fold] | time fluorescence readings remained stable (E. coli cells) | fold change in fluorescence between wild-type and MTAN knockout strain 2 ([3]; E. coli BL21* MTAN knockout strain 2) [×] | fluorescence signal in ΔMTAN versus wild-type cells ([3]; E. coli BL21*, flow cytometry) |
| --- | --- | --- | --- | --- | --- | --- | --- | --- | --- | --- |
| B1 | displayed a fluorescence response to SET7/9 activity | 0.74 | 0.44 | decreased fluorescence turn-on | around 5 fold | marked improvement in fluorescence turn-on | – | – | – | – |
| B2 | – | – | – | – | – | – | 22 | up to 3 h | 1.4 | no significant difference in signal |
